Laboratory results: US9605064B2, “Methods and compositions for treatment of skin disorders” (AbbVie Biotechnology Ltd, priority 2006, dated 2017)
Where “and” joins values, the source holds several entries; their conditions need not be identical. Equal entries are not always repeated.

Test system: patients with moderate to severe chronic plaque psoriasis
Experiment: Adverse events, Phase II trial with 48-week extension
Settings: for patients with serious adverse events (SAEs): 60-week trial
[1] = Weeks 12-60, placebo/adalimumab 40 mg eow + adalimumab 40 mg eow, no prior use (n = 47)
[2] = Weeks 12-60, placebo/adalimumab 40 mg eow + adalimumab 40 mg eow, prior biologic use (n = 16)
[3] = Weeks 12-60, placebo/adalimumab 40 mg eow + adalimumab 40 mg eow, prior systemic use (n = 35)
[4] = all patients, Weeks 0-12, 40 mg eow (N = 45)
[5] = all patients, Weeks 0-12, 40 mg weekly (N = 50)
[6] = all patients, Weeks 12-60, 40 mg weekly (n = 50)
[7] = all patients, Weeks 12-60, placebo/adalimumab 40 mg eow + adalimumab 40 mg eow (N = 92)
[8] = baseline PASI ≧10 and DLQI >10, Weeks 0-12, 40 mg eow (N = 26)
[9] = baseline PASI ≧10 and DLQI >10, Weeks 0-12, 40 mg weekly (N = 23)
[10] = baseline PASI ≧10 and DLQI >10, Weeks 12-60, 40 mg weekly (N = 23)
[11] = baseline PASI ≧10 and DLQI >10, Weeks 12-60, placebo/adalimumab 40 mg eow + adalimumab 40 mg eow (N = 41)
[12] = weeks 12-60, 40 mg weekly (N = 50)
[13] = weeks 12-60, placebo/adalimumab 40 mg eow + adalimumab 40 mg eow (N = 92)

From the text: The study was a randomized, double-blind, placebo-controlled, multi-center clinical trial, wherein patients were randomized to one of three treatment groups. The three treatment groups consisted of the following: • 1. […] Inclusion criteria included a diagnosis of moderate to severe chronic plaque psoriasis≧1 year prior to entry, a psoriasis-affected body surface area (BSA)>5%, and no previous use of TNF-antagonist therapy.
Inclusion criteria for the study included the following parameters: ≧18 years of age; moderate to severe chronic plaque psoriasis≧1 year; and affected BSA≧5%. […] Efficacy outcome measures included PASI and PGA.
Inclusion criteria included patients being 18 years of age; having moderate to severe chronic plaque psoriasis≧1 year; and affected BSA≧5%. Exclusion criteria included prior TNF-antagonist therapy and discontinuation of other systemic psoriasis therapies. Efficacy outcome measures which were used included PASI, PGA, DLQI.
Inclusion criteria included: • ≧18 years of age • Moderate to severe chronic plaque psoriasis 1 year • Affected BSA≧5% Exclusion criteria included: • Prior TNF-antagonist therapy • Discontinuation of other systemic psoriasis therapies Efficacy outcome was measured using PASI and DLQI responses/scores.

How did the “Any AE, number of patients” value [1] turn out when “Adalimumab: a human anti-TNF mAb, described in U.S. Pat. No. 6,090,382 as D2E7 (HUMIRA, Abbott Laboratories)” was run?
The value was 37.

And the “Serious AE” value [1]?
The value was “(0) %”.

What about the “Serious AE, number of patients” value [1] of the same substance?
The value was 0.

What about the “AE's→Withdrawal” value [2] of the same substance?
Its value is “(6) %”.

And the “AE's→Withdrawal, number of patients” value [2]?
Its value is 1.

What about the “Any AE” value [2] of the same substance?
The value was “(75) %”.

What about the “Any AE, number of patients” value [2] of the same substance?
Its value is 12.

What about the “Serious AE” value [2] of the same substance?
The value was “(13) %”.

And the “Serious AE, number of patients” value [2]?
The value was 2.

And the “AE's→Withdrawal” value [3]?
The value was “(6) %”.

What about the “AE's→Withdrawal, number of patients” value [3] of the same substance?
Its value is 2.

And the “Any AE” value [3]?
Its value is “(80) %”.

And the “Any AE, number of patients” value [3]?
Its value is 28.

What about the “Serious AE” value [3] of the same substance?
The value was “(6) %”.

What about the “Serious AE, number of patients” value [3] of the same substance?
The value was 2.

And the “patients who withdrew due to adverse events” value (Weeks 12-60, range across treatment groups)?
The value was 3-10%.

And the “AEs leading to withdrawal” value [4]?
The value was 2 (4) n (%) and 2 (4.4) n (%).

And the “Any AE” value [4]?
Its value is 28 (62) n (%) and 28 (62.2) n (%).

And the “Serious AEs” value [4]?
Its value is 1 (2) n (%) and 1 (2.2) n (%).

And the “AEs leading to withdrawal” value [5]?
Its value is 3 (6) n (%).

What about the “Any AE” value [5] of the same substance?
Its value is 39 (78) n (%).

And the “Serious AEs” value [5]?
Its value is 4 (8) n (%).

What about the “AEs leading to withdrawal” value [6] of the same substance?
The value was 5 (10) n (%).

And the “Any AE” value [6]?
The value was 39 (78) n (%).

And the “Serious AEs” value [6]?
The value was 7 (14) n (%).

And the “AEs leading to withdrawal” value [7]?
The value was 3 (3) n (%) and 3 (3.3) n (%).

And the “Any AE” value [7]?
Its value is 72 (78) n (%) and 72 (87.3) n (%).

And the “Serious AEs” value [7]?
The value was 2 (2) n (%) and 2 (2.2) n (%).

What about the “AEs leading to withdrawal” value [8] of the same substance?
Its value is 0 (0) n (%).

And the “Any AE” value [8]?
Its value is 16 (62) n (%).

What about the “Serious AEs” value [8] of the same substance?
The value was 0 (0) n (%).

What about the “AEs leading to withdrawal” value [9] of the same substance?
Its value is 1 (4) n (%).

What about the “Any AE” value [9] of the same substance?
Its value is 19 (83) n (%).

And the “Serious AEs” value [9]?
The value was 2 (9) n (%).

And the “AEs leading to withdrawal” value [10]?
Its value is 0 (0) n (%).

And the “Any AE” value [10]?
The value was 11 (48) n (%).

What about the “Serious AEs” value [10] of the same substance?
Its value is 0 (0) n (%).

What about the “AEs leading to withdrawal” value [11] of the same substance?
The value was 2 (5) n (%).

What about the “Any AE” value [11] of the same substance?
Its value is 23 (56) n (%).

And the “Serious AEs” value [11]?
The value was 1 (2) n (%).

What about the Serious Adverse Events (dosage escalation group) of the same substance?
Its Serious Adverse Events is “no serious adverse events were observed”.

And the “withdrew from the study due to adverse events” value (dosage escalation group)?
Its value is “two others”.

And the Serious Adverse Events (dosage escalation group, listed as adalimumab)?
The Serious Adverse Events was “One patient”.

And the “patients who had adverse events” value (patients with PASI 75-99 and DLQI=0)?
Its value is 80%.

What about the “patients who had adverse events” value (patients with PASI 75-99 and DLQI>0) of the same substance?
The value was 91%.

And the “patients who had adverse events” value (patients with PASI 100 and DLQI=0)?
The value was 91%.

And the “patients who had adverse events” value (patients with PASI 100 and DLQI>0)?
The value was 50%.

What about the “patients with serious adverse events (SAEs)” value (from here on “patients … (SAEs)”) (prior-biologic patients) of the same substance?
Its value is 4 patients.

And the “patients … (SAEs)” value (prior-systemic patients)?
Its value is 7 patients.

What about the “Back pain, number of patients” value [12] of the same substance?
Its value is 4.

What about the “Back pain, percentage (in parentheses)” value [12] of the same substance?
The value was “(8.0)”.

And the “Blood CPK increased, number of patients” value [12]?
The value was 2.

What about the “Blood CPK increased, percentage (in parentheses)” value [12] of the same substance?
Its value is “(4.0)”.

And the “Blood TG increased, number of patients” value [12]?
The value was 2.

What about the “Blood TG increased, percentage (in parentheses)” value [12] of the same substance?
The value was “(4.0)”.

And the “Headache, number of patients” value [12]?
The value was 6.

And the “Headache, percentage (in parentheses)” value [12]?
Its value is “(12.0)”.

What about the “Muscle strain, number of patients” value [12] of the same substance?
Its value is 4.

What about the “Muscle strain, percentage (in parentheses)” value [12] of the same substance?
The value was “(8.0)”.

And the “Nasopharyngitis, number of patients” value [12]?
The value was 6.

And the “Nasopharyngitis, percentage (in parentheses)” value [12]?
Its value is “(12.0)”.

And the “Skin papilloma, number of patients” value [12]?
The value was 5.

What about the “Skin papilloma, percentage (in parentheses)” value [12] of the same substance?
The value was “(10.0)”.

What about the “URI, NOS, number of patients” value [12] of the same substance?
Its value is 7.

What about the “URI, NOS, percentage (in parentheses)” value [12] of the same substance?
Its value is “(14.0)”.

What about the “URI, viral NOS, number of patients” value [12] of the same substance?
Its value is 3.

And the “URI, viral NOS, percentage (in parentheses)” value [12]?
Its value is “(6.0)”.

What about the “Urticari, number of patients” value [12] of the same substance?
The value was 3.

And the “Urticari, percentage (in parentheses)” value [12]?
The value was “(6.0)”.

What about the “Back pain, number (percentage in parentheses)” value [13] of the same substance?
The value was 4 (4.3).

What about the “Blood CPK increased, number (percentage in parentheses)” value [13] of the same substance?
Its value is 5 (5.4).

What about the “Blood TG increased, number (percentage in parentheses)” value [13] of the same substance?
The value was 7 (7.6).

And the “Headache, number (percentage in parentheses)” value [13]?
Its value is 3 (3.3).

What about the “Muscle strain, number (percentage in parentheses)” value [13] of the same substance?
The value was 1 (1.1).

What about the “Nasopharyngitis, number (percentage in parentheses)” value [13] of the same substance?
The value was 13 (14.1).

What about the “Skin papilloma, number (percentage in parentheses)” value [13] of the same substance?
Its value is 3 (3.3).

And the “URI, NOS, number (percentage in parentheses)” value [13]?
Its value is 9 (9.8).

What about the “URI, viral NOS, number (percentage in parentheses)” value [13] of the same substance?
The value was 4 (4.3).

What about the “Urticari, number (percentage in parentheses)” value [13] of the same substance?
The value was 0 (0.0).

And the “patients … (SAEs)” value (without recent prior systemic or biologic therapy)?
Its value is 5 patients.
